Legend:
[1] = test system: primary human hepatocytes; assay: IL11 stimulation of primary human hepatocytes: ERK, JNK, CASP3, PI staining; type: cell-based
From the text: PI^+ve cells were quantified with the flow cytometer (Fortessa, BD Biosciences) and analyzed with FlowJo version 7 software (TreeStar).

mouse hepatocytes [2] = assay: rhIL11 versus rmIL11 on mouse hepatocytes; type: cell-based
From the text: (§1) Mouse hepatocytes (ABC-TC3928, AcceGen Biotech) were maintained in mouse hepatocyte medium (ABC-TM3928, AcceGen Biotech) supplemented with 1% Penicillin-streptomycin.

human hepatocytes = assay: rhIL11 versus rmIL11 on human hepatocytes; type: cell-based; settings: 10 ng ml^-1
AILI = assay: rhIL11 or rmIL11 injection in APAP OD mice; type: in vivo, mouse
Protocol: FIGS. 10A to 10L. […] (A, B, K, L) 24 h. […] FC: fold change

mouse hepatocytes [3] = type: cell-based; settings: 24 h
From the text: as §1

[4] = test system: primary human hepatocytes; assay: IL11 effect on GSH and NOX4 in primary human hepatocytes; type: cell-based
liver = settings: single subcutaneous injection 500 μg kg^-1
Protocol: (A) Effect of recombinant human IL11 (rhIL11, 10 ng ml^−1) or recombinant mouse IL11 (rmIL11, 10 ng ml^−1) on ERK, JNK and CASP3 activation status in mouse hepatocytes. (B) ALT levels in mouse hepatocyte supernatant following stimulation by rmIL11 (10 ng ml^−1) or by increasing doses of rhIL11 (1, 5, 10, 15 and 20 ng ml^−1). (C) Schematic of mice receiving a single subcutaneous injection of either saline, rhIL11, or rmIl11 (500 μg kg^−1). (D) Western blot analysis of hepatic p-ERK, p-JNK, and Cl. […] Dose-dependent inhibition effect of rhIL11 on rmIL11-induced (K) ALT secretion and (L) CASP3 activation by mouse hepatocytes. (A, B, K, L) 24 h. (B, K) Data are shown as mean±SD; (E, G) Data are shown as box-and-whisker with median (middle line), 25th-75th percentiles (box), and minimum-maximum values (whiskers). (B, K) Two-tailed, Tukey-corrected Student's t-test; (E) two-tailed Student's t-test; (G) two-tailed Dunnett's test.
The levels of alanine transaminase (ALT) or aspartate aminotransferase (AST) in mouse serum and hepatocyte supernatant were measured using ALT Activity (ab105134, Abcam) or AST (ab105135, Abcam) Assay Kits. […] All colorimetric assays were performed according to the manufacturer's protocol.
Western blots were carried out from hepatocyte and liver tissue lysates. […] Protein concentrations were determined by Bradford assay (Bio-Rad). […]

hIL11Rα = target: T1, hIL11Rα (Homo sapiens, UniProt Q14626); settings: rhIL11:hIL11Rα, reported previously, reconfirmed; cited from earlier work
T1 construct: purchased SinoBiological 10252-H08H
T1 sequence (Q14626 23-422): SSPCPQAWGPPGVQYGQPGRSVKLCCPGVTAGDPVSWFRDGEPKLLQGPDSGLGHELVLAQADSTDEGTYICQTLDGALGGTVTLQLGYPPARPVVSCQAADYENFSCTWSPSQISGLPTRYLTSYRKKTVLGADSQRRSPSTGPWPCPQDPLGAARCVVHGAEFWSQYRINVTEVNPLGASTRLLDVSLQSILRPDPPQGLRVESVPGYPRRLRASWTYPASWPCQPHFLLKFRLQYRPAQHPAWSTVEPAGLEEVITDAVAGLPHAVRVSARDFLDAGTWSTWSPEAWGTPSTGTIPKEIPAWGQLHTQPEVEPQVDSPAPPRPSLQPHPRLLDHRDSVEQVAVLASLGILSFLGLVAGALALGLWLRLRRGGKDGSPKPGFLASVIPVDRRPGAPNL

IL-11Rα = settings: low affinity; cited from earlier work
IRI = settings: 500 μg/kg, IP one hour prior to IRI; cited from earlier work
[5] = test system: LPS-induced hepatic injury (acute endotoxemia); settings: 150 μg/kg, IP; cited from earlier work
[6] = test system: Concanavalin A-induced T-cell-mediated hepatotoxicity; settings: 50-500 μg/kg, IP 2 hours prior to Concanavalin A; cited from earlier work
infection colitis = settings: 5 μg/kg, IP; cited from earlier work
[7] = test system: early intestinal radiation injury; settings: 2 mg/kg/d from 2 days prior until 2 weeks after irradiation; cited from earlier work
intestinal inflammation = settings: mucosal sheets 10-10,000 ng/ml; rats 33 μg/kg alternate days 1 or 2 weeks; cited from earlier work
small intestinal mucosa = settings: 250 μg/kg; cited from earlier work
[8] = test system: clonogenic cells in intestinal crypts; settings: 100 μg/kg, SC prior to and after cytotoxic exposure; cited from earlier work
ulcerative mucositis = settings: 50-100 μg/animal/day, SC; cited from earlier work
[9] = test system: murine primary macrophages; settings: 10-100 ng/ml; cited from earlier work
[10] = test system: Borrelia burgdorferi-infected mice; settings: 0.1-2 μg/mouse/day, 5 days/week for 3 weeks; cited from earlier work
[11] = test system: collagen-induced arthritis; settings: 0.3-100 μg/mouse/day, IP, 10 days; cited from earlier work
kidney = settings: 100-1000 μg/kg, IP; 10 minutes prior to or 30-60 minutes following IR; cited from earlier work
nephrotoxic nephritis = settings: 800-1360 μg/kg, IP 2 hours prior, then once daily for 6 days; cited from earlier work
LPS-induced lung injury = settings: 200 mg/kg, IP; cited from earlier work
active Crohn's disease = settings: 1 mg, weekly for 12 weeks, SC; 51 patients; cited from earlier work
[12] = test system: chronic Hepatitis C and late stage liver disease; settings: 5 μg/kg, daily for 12 weeks, SC; 20 patients; cited from earlier work
rheumatoid arthritis = settings: up to 15 μg/kg weekly for 12 weeks (SC); cited from earlier work
[13] = subcutaneous injection, APAP OD

B1: rhIL11: Recombinant human IL11 (UniProtKB:P20809, Genscript) (protein)
chain: PGPPPGPPRVSPDPRAELDSTVLLTRSLLADTRQLAAQLRDKFPADGDHNLDSLPTLAMSAGALGALQLPGVLTRLRADLLSYLRHVQWLRRAGGSSLKTLEPELGTLQARLDRLLRRLQLLMSRLALPQPPPDPPAPPLAPPSSAWGGIRAAHAILGGLHLTLDWAVRGLLLLKTRL
hepatocyte cell death, FACS (PI+ve cells) ([1]; 24 h): dose-dependent IL11-induced hepatocyte cell death | ERK and JNK activation, concurrent with CASP3 cleavage ([1]; time course): late (>6 h) and sustained ERK and JNK activation | ERK and JNK phosphorylation, CASP3 cleavage (mouse hepatocytes [2]; 10 ng ml^-1, 24 h): had no effect | mouse hepatocyte cell death (ALT in supernatant) (mouse hepatocytes [2]; 24 h): did not | ERK and JNK signaling and hepatocyte death (human hepatocytes): stimulated ERK and JNK signaling and hepatocyte death | hepatic ERK and JNK activation (AILI; 24 h following APAP administration): reduction in hepatic ERK and JNK activation | hepatic GSH levels after APAP (AILI; APAP injury): restored APAP-induced GSH depletion | reduction of serum ALT (severity of AILI) (AILI; [13]): 52% | reduction of serum AST (severity of AILI) (AILI; [13]): 39% | GSH levels in rmIL11 stimulated mouse cells (mouse hepatocytes [3]): clear, dose-dependent effects of rhIL11 in restoring GSH levels | GSH depletion ([4]; dose range and time course): stimulated dose-dependent GSH depletion | NOX4 expression ([4]; rhIL11 10 ng ml^-1): NOX4 upregulation | hepatic ERK and JNK phosphorylation (liver): no effect on ERK or JNK phosphorylation | Kd (hIL11Rα): 50 nM | Kd (IL-11Rα): ~10 nM | hepatoprotection in IRI (IRI): Hepatoprotective effects of rhIL11 in mice subjected to a single | LPS-induced hepatic injury [5]: significant protective role in LPS-induced hepatic injury (acute | liver necrosis [6]: Concanavalin A-induced T-cell-mediated hepatotoxicity reduces | survival [6]: liver necrosis and enhanced survival in mice. | infection colitis (infection colitis): IP) ameliorates infection colitis and is cytoprotective in TLR2- | early intestinal radiation injury [7]: The authors conclude that IL11 ameliorates early intestinal | epithelial transport and inflammation (intestinal inflammation): acts as a modulator of epithelial transport or as an anti- | recovery from chemotherapy and radiation-induced mucosal damage (small intestinal mucosa): Administration of rhIL11 (250 μg/kg) promotes recovery from | clonogenic cells in intestinal crypts [8]: cytotoxic exposure, protects clonogenic cells in intestinal crypts | 5-fluorouracil-induced ulcerative mucositis (ulcerative mucositis): Administration of rhIL11 (50-100 μg/animal/day, SC) protects | secretion of pro-inflammatory cytokines by macrophages [9]: The authors conclude that IL11 inhibits the secretion of pro- | arthritis and carditis [10]: weeks) reduces arthritis, but not carditis, in Borrelia burgdorferi- | inflammation [11]: days) reduces inflammation in a murine model of collagen- | renoprotection (kidney): The authors conclude that IL11 is renoprotective based on pre- | ECM deposition (nephrotoxic nephritis): nephrotoxic nephritis and then once daily for 6 days suppresses | LPS-induced lung injury and lethality (LPS-induced lung injury): inflammatory activity that protects against LPS-induced lung | efficacy compared to prednisolone (active Crohn's disease): inferior as compared to prednisolone treatment. | serum ALT by study end [12]: Lower serum ALT was observed by study end. The most | patients with mild adverse effect (erythema with/without induration) at the injection site (rheumatoid arthritis): with/without induration) at the injection site was seen in 60.6% of | therapeutic benefit (rheumatoid arthritis): no therapeutic benefit

Source: US11319368B2, “Treatment of hepatotoxicity with IL-11 antibody” (Singapore Health Services PTE LTD., priority 2019, dated 2022)
